From publication PMC2614139

Target: GCaMP2 (original protein with the N-terminal hexahistidine tag and RSET module) (not stated | Aequorea victoria)
Assay: AUC

stoichiometry N: 2
Substance: GCaMP2 (original protein with the N-terminal hexahistidine tag and RSET module)
